Measurements from paper PMC7952403 (Nature Communications, 2021).

Molecular target: SARS-CoV-2 RBD-SD1, HEK cell produced (SPR) (Severe acute respiratory syndrome …, UniProt P0DTC2)
Test: SPR
Settings: both partners purified

B1: STE73-2E9 IgG (antibody, V domains shown)
VH: QVQLVQSGAEVKKPGASVKVSCKASGYTFTSYGISWVRQAPGQGLEWMGWISAYNGNTNYAQKLQGRVTMTTDTSTSTAYMELRSLRSDDTAVYYCARGKFDYWGQGTLVTVSS
VL: QSVLTQPPSVSEAPSQRVTISCSGSSSNIGNNAVNWYQQLPGKAPKLLIYYDDVLPSGVSDRFSGSKSGTSASLAISGLQSGDEADYYCAAWDDSLSGVVFGGGTKLTVL
notes: source: Expi293F, transfected, purified (Protein A); copies: 2 + 2
**Q.** For B1, which Kd is on record?
**A.** Its Kd is 2 nM.
